From patent US7807881B2, “Methods to confer herbicide resistance” (Athenix Corp., priority 2003, dated 2010)

B1: GDC-2: Glyphosate resistance-conferring decarboxylase protein (SEQ ID NO:15) with TPP-binding domains, homologous to acetolactate synthase (protein)
chain: MMLRSRQASKALRALGQARHFTSTTQPAAVQAPRKVASGQRNQATAATATSAAPNVRATPSPAFNAEEQQQQKHSHVQPLVNPQKSDMDESFIGKTGGEIFHEMMLRQGVKHIFGYPGGAILPVFDAIYNSKHFDFILPRHEQGAGHMAEGYARASGKPGVVLVTSGPGATNVVTPMQDALSDGTPLVVFCGQVPTSAIGSDAFQEADVVGISRACTKWNVMVKNVAELPRRINEAFEIATSGRPGPVLVDLPKDVTAGILRRAIPTETALPALPSAASRAAMESSRKHLEHTIKRVADLVNKAKQPVIYAGQGIIQSEGGPELLKELADKASIPVTTTLQGLGGFDELDEKSLHMLGMHGSAYANMAMQEADLIIALGARFDDRVTLNVAKFAPGARAAAAEKRGGIVHFEVMPKNINKVVQATEAVEGNVGSNLKLLLPEVQAKTMDDRKEWFGKINEWKKKWPLSHYERAERHGLIKPQTLIEELSKLTADRKDKTYIATGVGQHQMWTAQHFRWRHPRSMITSGGLGTMGFGLPAAIGAKVAQPDALVFDIDGDASFGMTLTELATAAQFNIGVKVIVLNNEEQGMVTQWQNLFYEDRYAHTHQVNPDFMKLAESMRVQGRRCVDPEDVVDSLKWLINTDGPALLEVVTDKKVPVLPMVPAGSALHEFLVFDGEKDKKRRELMRERTSGLHG
modifications: Fungal isolate from soil sample
B2: GDC-1: Glyphosate resistance-conferring decarboxylase protein (SEQ ID NO:22) with TPP-binding domains, homologous to pyruvate decarboxylase (protein)
chain: MASINIRVQNLEQPMDVAEYLFRRLHEIGIRSIHGLPGDYNPLALDYLPSCGLRWVGSVNELNAAYAADGYARVKQMGALITTFGVGELSAINGVAGAFSEHVPVVHIVGCPSTASQRNGMLLHHTLGNGDFNIFANMSAQISCEVAKLTNPAEIATQIDHALRVCFIRSRPVYIMLPTDMVQAKVEGARLKEPIDLSEPPNDPEKEAYVVDVVLKYLRAAKNPVILVDACAIRHRVLDEVHDLIEKTNLPVFVTPMGKGAVNEEHPTYGGVYAGDGSHPPQVKDMVESSDLILTIGALKSDFNTAGFSYRTSQLNTIDLHSDHCIVKYSTYPGVQMRGVLRQVIKQLDASEINAQPAPVVENEVAKNRDNSPVITQAFFWPRVGEFLKKNDIVITETGTANFGIWDTKFPSGVTALSQVLWGSIGWSVGACQGAVLAAADDNSDRRTILFVGDGSFQLTAQELSTMIRLKLKPIIFVICNDGFTIERFIHGMEAEYNDIANWDFKALVDVFGGSKTAKKFAVKTKDELDSLLTDPTFNAAECLQFVELYMPKEDAPRALIMTAEASARNNAKTE
modifications: Fungal isolate from soil sample

Experiments:
[1] = Acetolactate synthase activity (acetoin detection, absorbance 525 nm); type: biochemical; details: 50 mM pyruvate, pH 7.0, 2 hours at 37° C.
Description: Acetolactate synthases are decarboxylating enzymes that condense two pyruvate molecules to form acetolactate with the release of a CO2 moiety from one of the pyruvate substrates. In the detection of the enzymatic reaction described by Pang and Duggleby (Pang and Duggleby (1999) Biochemistry 18:5222-5231), the product acetolactate is converted to acetoin by incubation with 1% H2SO4 for 15 minutes at 60° C. followed by neutralization with KOH. The acetoin is then detected as described by Westerfeld (Westerfeld (1945) J. Biol. Chem. 161:495-502), using 0.15% creatine and 1.5% alpha-naphthol (dissolved in 2.5 N NaOH). The red colored reaction product is quantified by absorbance at 525 nm.
Samples containing either 5 μg or 10 μg of GDC-2 were incubated in 50 mM pyruvate, 1 mM […] pyrophosphate, 10 mM MgCl2, 0.01 mM Flavin adenine dinucleotide (FAD), 100 mM potassium phosphate buffer pH 7.0 (total reaction volume of 50 μl) for 2 hours at 37° C. The reaction was stopped by the addition of 1 μl of 50% sulfuric acid (H2SO4) and incubated at 60° C. for 15 minutes. The reaction was neutralized by the addition of 30 μl of 1 N KOH followed by the addition of 10 μl of 1.5% creatine and 10 μl of 15% alpha-napthol dissolved in 2.5 N NaOH. The red colored reaction product was quantified by absorbance at 525 nm.

[2] = tested on: E. coli ΔaroA; experiment: Genetic complementation of aroA (EPSP synthase) deletion mutant; type: cell-based; details: ΔaroA plated on LB, M63, and M63 with phenylalanine, tryptophan, tyrosine
Text: The E. coli aroA gene codes for EPSP synthase, the target enzyme for glyphosate. […] However, genes encoding EPSPS activity can restore ability to grow […] upon aroA mutant E. coli strains. Thus, a test for genetic complementation of an aroA mutant is a highly sensitive method to test if a gene is capable of functioning as an EPSPS in E. coli. Such tests for gene function by genetic complementation are known in the art.
A deletion of the aroA gene was created in E. coli XL-1 MRF′ (Stratagene) by PCR/recombination methods known in the art and outlined by Datsenko and Wanner, (2000) Proc. Natl. Acad. Sci. USA 97:6640-6645. This system is based on the Red system that allows for chromosomal disruptions of targeted sequences. A large portion (1067 nt of the 1283 nt) of the aroA coding region was disrupted by the engineered deletion.
The ability of an EPSPS to complement the mutant phenotype of ΔaroA was confirmed. Clone pAX482, an E. coli expression vector containing the wild-type E. coli aroA gene, was transformed into ΔaroA, and transformed cells were selected. These cells (containing a functional aroA gene residing on a plasmid) were then plated on LB media, M63, and M63 with amino acid supplements. […]

[3] = tested on: E. coli; experiment: Growth of E. coli clones in M9 minimal media containing glyphosate (OD600); type: cell-based; details: 37° C., 28 hours after inoculation, triplicate
Description: Starter cultures of E. coli containing GDC-1 (full), GDC-2, or vector alone were grown overnight in LB media, diluted 1:1000 into 3 ml M9 minimal media containing 0, 2, 5, 10, 20 and 30 mM glyphosate and grown at 37° C. Each strain was grown in triplicate at each concentration. OD600 was measured at 0, 7, 24, and 28 hours after inoculation.

[4] = In vitro modification of C14 labeled glyphosate, products analysed by HPLC; type: biochemical; details: 100 ng protein, 2 mM glyphosate, Na-Citrate pH 6.0, 1 mM TPP, 2 mM MgCl2, 60 minutes
Description: The ability of GDC-1 to modify glyphosate in vitro was tested by incubating GDC-1 with a mixture of radiolabeled and non-labeled glyphosate, and analyzing the reaction products by HPLC.
100 ng of GDC-1 purified protein was incubated with 20,000 cpm of C^14 labeled glyphosate (NaOOCCH2NH^14CH2PO3H2; Sigma catalog #G7014), mixed with unlabelled glyphosate to a final concentration of 2 mM in a reaction buffer of 200 mM Na-Citrate, pH 6.0, 1 mM TPP, 2 mM MgCl2. Reaction was allowed to proceed 60 minutes, then 5 μl was applied to HPLC column (Dionex AminoPac PA10 analytical (and guard) column, anion exchange resin; Dionex Corporation). The column was equilibrated with 150 mM sodium hydroxide. Fractions were eluted with a sodium acetate gradient of 150-300 mM sodium acetate. Single drop (40 uL) fractions were collected, and the radioactivity present in each fraction determined using a 96-well scintillation counter. […] Control experiments lacking purified GDC-1 show no peak at this elution time.

[5] = Standard pyruvate decarboxylase assay, coupled with alcohol dehydrogenase (absorbance at 340 nm); type: biochemical; details: 100 ng of GDC-1 protein; decrease in absorbance at 340 nm
Description: 100 ng of GDC-1 protein was tested for activity in a standard pyruvate decarboxylase assay (Gounaris et al. (1971) J. of Biol. Chem. 246:1302-1309). This assay is a coupled reaction where in the first step the pyruvate decarboxylase (PDC) converts pyruvate to acetaldehyde and CO2. The acetaldehyde produced in this reaction is a substrate for alcohol dehydrogenase, which converts acetaldehyde and β-NADH to ethanol and β-NAD. Thus, PDC activity is detected by virtue of utilization of β-NADH as decrease in absorbance at 340 nm in a spectrophotometer. GDC-1 as well as a control enzyme (pyruvate decarboxylase, Sigma) were tested in this assay.

Molecule | Absorbance 525 nm (acetolactate synthase activity) ([1]; 5 μg GDC-2) | Absorbance 525 nm (acetolactate synthase activity) ([1]; 10 μg GDC-2) | Complementation of the aroA mutation (growth of ΔaroA on M63 minimal media) [2] | OD600 Mean ([3]; 0 mM glyphosate) | OD600 Mean ([3]; 2 mM glyphosate) | OD600 Mean ([3]; 5 mM glyphosate) | OD600 Mean ([3]; 10 mM glyphosate) | OD600 Mean ([3]; 20 mM glyphosate) | Ability to modify glyphosate in vitro [4] | Pyruvate decarboxylase activity [5]
B1 | 1.99 | 3.13 | neither GDC-1 nor GDC-2 are capable of complementing the aroA mutation | 0.050 | 0.054 | 0.056 | 0.056 | 0.058 | – | –
B2 | – | – | neither GDC-1 nor GDC-2 are capable of complementing the aroA mutation | 0.049 | 0.056 | 0.055 | 0.057 | 0.058 | converts a portion of the labeled glyphosate to a product | showed activity as a pyruvate decarboxylase
